One block for each binder: values may come before it.
Key:
Mouse Tissue Factor [1] = target: T1, Mouse Tissue Factor (mouse); assay: BLI
T1 chain: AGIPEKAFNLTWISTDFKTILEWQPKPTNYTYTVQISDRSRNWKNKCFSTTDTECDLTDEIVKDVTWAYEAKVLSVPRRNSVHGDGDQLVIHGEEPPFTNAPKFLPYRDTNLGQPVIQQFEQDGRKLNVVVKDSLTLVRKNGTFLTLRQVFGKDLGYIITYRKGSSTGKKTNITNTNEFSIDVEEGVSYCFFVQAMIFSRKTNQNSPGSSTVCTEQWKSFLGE

Cynomolgus Tissue Factor [2] = target: T2, Cynomolgus Tissue Factor (cynomolgus); assay: BLI
T2 chain: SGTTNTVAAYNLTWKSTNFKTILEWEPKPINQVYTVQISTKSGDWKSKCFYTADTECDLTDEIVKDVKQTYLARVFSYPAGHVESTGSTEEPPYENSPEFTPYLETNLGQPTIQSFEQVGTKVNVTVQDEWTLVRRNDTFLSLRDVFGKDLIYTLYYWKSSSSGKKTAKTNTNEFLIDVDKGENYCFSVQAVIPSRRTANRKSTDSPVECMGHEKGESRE

Human Tissue Factor [3] = target: T3, Human Tissue Factor (human); assay: BLI
T3 chain: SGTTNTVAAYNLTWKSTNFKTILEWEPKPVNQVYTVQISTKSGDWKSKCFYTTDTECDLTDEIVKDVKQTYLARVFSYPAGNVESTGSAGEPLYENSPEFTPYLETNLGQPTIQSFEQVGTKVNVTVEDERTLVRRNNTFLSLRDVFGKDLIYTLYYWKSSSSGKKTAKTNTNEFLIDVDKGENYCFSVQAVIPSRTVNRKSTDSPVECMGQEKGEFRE

Human Tissue Factor [4] = target: T3, Human Tissue Factor; assay: BLI, batch 1
Human Tissue Factor [5] = target: T3, Human Tissue Factor; assay: BLI, batch 2
Cynomolgus Tissue Factor [6] = target: T2, Cynomolgus Tissue Factor; assay: BLI, batch 2
Mouse Tissue Factor [7] = target: T1, Mouse Tissue Factor; assay: BLI, batch 1
Cynomolgus Tissue Factor [8] = target: T2, Cynomolgus Tissue Factor; assay: BLI, batch 1
Mouse Tissue Factor [9] = target: T1, Mouse Tissue Factor; assay: BLI, batch 2

Kd (Mouse Tissue Factor [1]): 210 µM
Kd (Cynomolgus Tissue Factor [2]): 19 µM
Kd (Human Tissue Factor [3]): 7.1 µM
B1: TF-ADC 6-8 (antibody)
chain 1: not shown
chain 2: DIQMTQSPSTLSASVGDRVTITCQASQSINNWLAWYQQKPGKAPKLLIYKAYNLESGVPSRFSGSGSGTEFTLTISSLQPDDFATYYCQLFQSLPPFTFGGGTKVEIKRTVAAPSVFIFPPSDEQLKSGTASVVCLLNNFYPREAKVQWKVDNALQSGNSQESVTEQDSKDSTYSLSSTLTLSKADYEKHKVYACEVTHQGLSSPVTKSFNRGEC
modifications: ADC, linker-payload conjugated at fGly' in CH1 and C-terminus, DAR about 8

Kd (Human Tissue Factor [4]): 0.00113 µM
Kd (Human Tissue Factor [5]): 36 µM
Kd (Cynomolgus Tissue Factor [6]): 240 µM
Kd (Mouse Tissue Factor [7]): 0.107 µM
Kd (Cynomolgus Tissue Factor [8]): 0.000673 µM
Kd (Mouse Tissue Factor [9]): 2000 µM
B2: EXMA-006 (antibody)
chain 1: QVQLVQSGAEVKKPGASVKVSCKASGYTFDVYGISWVRQAPGQGLEWMGWIAPYSGNTNYAQKLQGRVTMTTDTSTSTAYMELRSLRSDDTAVYYCARDAGTYSPFGYGMDVWGQGTTVTVSS
chain 2: DIQMTQSPSTLSASVGDRVTITCQASQSINNWLAWYQQKPGKAPKLLIYKAYNLESGVPSRFSGSGSGTEFTLTISSLQPDDFATYYCQLFQSLPPFTFGGGTKVEIK
modifications: unconjugated TF antibody; representative batches 1 and 2

— US20260325667 (published 2026)
